# Test results taken from patent US20260062456A1.
# Where “and” joins values, the source holds several entries; their conditions need not be identical. Equal values may be shown once.
# Biological target: PD-1 (human) (UniProt Q15116)
# Test: cell-based or functional assay
# PD-1 (human), sequence (Q15116 25-288): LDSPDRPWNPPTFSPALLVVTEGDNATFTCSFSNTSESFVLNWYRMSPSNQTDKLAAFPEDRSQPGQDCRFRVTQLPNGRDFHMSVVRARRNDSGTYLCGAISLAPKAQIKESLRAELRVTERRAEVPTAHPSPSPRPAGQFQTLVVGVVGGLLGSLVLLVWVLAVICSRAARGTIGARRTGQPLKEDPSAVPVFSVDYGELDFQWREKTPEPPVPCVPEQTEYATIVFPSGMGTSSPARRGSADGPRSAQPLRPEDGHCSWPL
Average Relative Luminescence Units,Fold increase in IL2 reporter signal,Substance
1960 RLU,0.88 fold,"variant PD-L1 IgV-Fc N45T, S75P (Fc fusion)"
4590 RLU,2.06 fold,"variant PD-L1 IgV-Fc I20L, E27G, D43G, N45D, V58A, N78I (Fc fusion)"
2030 RLU,0.91 fold,"variant PD-L1 IgV-Fc E27G, N45T, K57R (Fc fusion)"
2150 RLU,0.97 fold,"variant PD-L1 IgV-Fc Y14S, K28E, N45T (Fc fusion)"
2060 RLU,0.92 fold,"variant PD-L1 IgV-Fc A33D, N78I (Fc fusion)"
2070 RLU,0.93 fold,"variant PD-L1 IgV-Fc I20L, N45T, N78I (Fc fusion)"
2280 RLU,1.02 fold,"variant PD-L1 IgV-Fc V11E, I20L, I36T, N45D, H60R, S75P (Fc fusion)"
1970 RLU,0.88 fold,"variant PD-L1 IgV-Fc E27G, N45T, M97I (Fc fusion)"
2160 RLU,0.97 fold,"variant PD-L1 IgV-Fc I20L, I36T, N45T, V50A (Fc fusion)"
1900 RLU,0.85 fold,"variant PD-L1 IgV-Fc N45T, V50A, N78I (Fc fusion)"
2190 RLU,0.98 fold,variant PD-L1 IgV-Fc N45T (Fc fusion)
2250 RLU,1.01 fold,"variant PD-L1 IgV-Fc I20L, I36T, N45D, I47T (Fc fusion)"
2110 RLU,0.95 fold,"variant PD-L1 IgV-Fc I20L, I36T, N45D (SEQ ID NO 254) (Fc fusion)"
2180 RLU,0.98 fold,"variant PD-L1 IgV-Fc I20L, N45T (Fc fusion)"
2210 RLU,0.99 fold,"variant PD-L1 IgV-Fc I20L, I36T, N45D (SEQ ID NO 298) (Fc fusion)"
2360 RLU,1.06 fold,"variant PD-L1 IgV-Fc K23R, D43G, N45D (Fc fusion)"
2240 RLU,1.01 fold,variant PD-L1 IgV-Fc N78L (Fc fusion)
2110 RLU,0.95 fold,"variant PD-L1 IgV-Fc I20L, M41K, D43G, N45D (Fc fusion)"
2000 RLU,0.9 fold,"variant PD-L1 IgV-Fc I20L, D43G, N45D, V58A, N78I, D90G, G101D (Fc fusion)"
2040 RLU,0.92 fold,"variant PD-L1 IgV-Fc A33D, S75P (SEQ ID NO 287) (Fc fusion)"
3380 RLU,1.52 fold,"variant PD-L1 IgV-Fc V11A, I20L, E27G, D43G, N45D, H51Y, S99G (Fc fusion)"
3510 RLU,1.57 fold,"variant PD-L1 IgV-Fc I20L, K23E, D43G, N45D, V58A, N78I (Fc fusion)"
2120 RLU,0.95 fold,"variant PD-L1 IgV-Fc M18I, M41K, D43G, H51R, N78I (Fc fusion)"
2080 RLU and 2200 RLU,0.93 fold and 0.99 fold,"variant PD-L1 IgV-Fc N45T, V50A (Fc fusion)"

Average Relative Luminescence Units,Fold increase in IL2 reporter signal,Substance
2140 RLU,0.96 fold,"variant PD-L1 IgV-Fc A33D, E53V (Fc fusion)"
4190 RLU,1.88 fold,"variant PD-L1 IgV-Fc I20L, D43G, N45D, V58A, N78I (Fc fusion)"
2310 RLU,1.04 fold,"variant PD-L1 IgV-Fc A33D, D43G, N45D, V58A, S75P (Fc fusion)"
3590 RLU,1.61 fold,"variant PD-L1 IgV-Fc I20L, K23E, D43G, N45D, V50A, N78I (Fc fusion)"
3470 RLU,1.56 fold,"variant PD-L1 IgV-Fc I20L, D43G, N45D, N78I (Fc fusion)"
2000 RLU,0.9 fold,"variant PD-L1 IgV-Fc A33D, N45T (Fc fusion)"
4290 RLU,1.93 fold,"variant PD-L1 IgV-Fc I20L, K28E, D43G, N45D, V58A, Q89R, G101G-ins (G101GG) (Fc fusion)"
1960 RLU,0.88 fold,"variant PD-L1 IgV-Fc E27G, N45T, V50A, N78I (Fc fusion)"
2150 RLU,0.97 fold,variant PD-L1 IgV-Fc M41K (Fc fusion)
2060 RLU,0.92 fold,"variant PD-L1 IgV-Fc A33D, N78S (Fc fusion)"
2460 RLU,1.11 fold,"variant PD-L1 IgV-Fc D43G, N45D, V58A (Fc fusion)"
2030 RLU,0.91 fold,"variant PD-L1 IgV-Fc N45T, L74P, S75P (Fc fusion)"
1800 RLU,0.81 fold,"variant PD-L1 IgV-Fc I20L, E27G, N45T, V50A (Fc fusion)"
2010 RLU,0.9 fold,"variant PD-L1 IgV-Fc I20L, E27G, D43G, N45T, V50A (Fc fusion)"
2690 RLU,1.21 fold,"variant PD-L1 IgV-Fc K23R, N45T, N78I (Fc fusion)"
2000 RLU,0.9 fold,"variant PD-L1 IgV-Fc E27G, N45T, V50A (Fc fusion)"
2350 RLU,1.05 fold,"variant PD-L1 IgV-Fc K28N, M41V, N45T, H51N, K57E (Fc fusion)"
2220 RLU,0.99 fold,"variant PD-L1 IgV-Fc E40G, D43V, N45T, V50A (Fc fusion)"
2050 RLU,0.92 fold,"variant PD-L1 IgV-Fc T19I, E27G, N45I, V50A, N78I, M97K (Fc fusion)"
4380 RLU,1.97 fold,"variant PD-L1 IgV-Fc I20L, A33D, D43G, N45D, V58A, N78I (Fc fusion)"
2180 RLU,0.98 fold,"variant PD-L1 IgV-Fc N45T, N78I (Fc fusion)"
2220 RLU,0.99 fold,"variant PD-L1 IgV-Fc A33D, S75P, D85E (Fc fusion)"
3930 RLU,1.76 fold,"variant PD-L1 IgV-Fc D43G, N45D, L56Q, V58A, G101G-ins (G101GG) (Fc fusion)"

# Biological target: PD-1-Fc (recombinant PD-1-Fc fusion protein) (human) (UniProt Q15116)
# Sequence (Q15116 25-167 limits assumed): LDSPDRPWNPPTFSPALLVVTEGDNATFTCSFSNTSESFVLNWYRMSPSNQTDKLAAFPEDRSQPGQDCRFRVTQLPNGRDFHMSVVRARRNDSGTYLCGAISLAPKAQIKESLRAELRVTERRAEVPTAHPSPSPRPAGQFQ
# Test: ForteBio Octet, PD-1-Fc on sensor
row,Fortebio binding to PD-1-Fc Response Units (Response Units),Substance
1,0.025,"PD-L2 IgV-Fc variant H15Q, S67L, R76G, I85F (Fc fusion)"
2,0.007,PD-L2 IgV-Fc variant H15Q (Fc fusion)

# Biological target: T1, CD226 (UniProt Q15762)
# T1 sequence (looked up): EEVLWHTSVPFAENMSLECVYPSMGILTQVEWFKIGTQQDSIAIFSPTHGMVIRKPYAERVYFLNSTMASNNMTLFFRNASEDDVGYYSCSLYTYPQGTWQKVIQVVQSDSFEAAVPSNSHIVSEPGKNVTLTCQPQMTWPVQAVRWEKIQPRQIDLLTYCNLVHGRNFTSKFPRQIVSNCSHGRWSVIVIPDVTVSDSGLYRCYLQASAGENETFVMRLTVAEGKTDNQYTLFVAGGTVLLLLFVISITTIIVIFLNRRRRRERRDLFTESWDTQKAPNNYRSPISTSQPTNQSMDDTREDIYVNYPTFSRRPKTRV
# Test: flow cytometry, cells expressing CD226
row,MFI at 25 nM,Substance
1,2320 MFI,"variant CD155 IgV-Fc V9L, V11M, P18S, N35S, S54G, Q62K, L79P, L104M, T107M, V115M (Fc fusion)"

# Biological target: human PD-1 and human TIGIT both stably expressed on Jurkat cells (Jurkat/PD-1/TIGIT cells)
# Test: flow cytometry, Jurkat/PD-1/TIGIT cells, 20 nM
row,MFI at 20 nM,Substance
1,10400 MFI,Full length ECD of PD-L1 (R&D Systems) (from UniProt Q9NZQ7 19-238) (Fc fusion)
2,478 MFI,Fc Control (homodimer) (from UniProt P0DOX5 218-449)
3,41400 MFI,non-stack variant PD-L1 IgV-Fc control (D43G/N45D/L56Q/V58A/G101G-ins (G101GG)) (Fc fusion)
4,1200 MFI,Wild-type CD155-ECD-Fc (from UniProt P15151 21-343) (Fc fusion)

# Biological target: CD112R endogenously expressed on Jurkat/IL-2 reporter cells (Jurkat parental) (UniProt Q6DKI7)
# Sequence (Q6DKI7 whole entry): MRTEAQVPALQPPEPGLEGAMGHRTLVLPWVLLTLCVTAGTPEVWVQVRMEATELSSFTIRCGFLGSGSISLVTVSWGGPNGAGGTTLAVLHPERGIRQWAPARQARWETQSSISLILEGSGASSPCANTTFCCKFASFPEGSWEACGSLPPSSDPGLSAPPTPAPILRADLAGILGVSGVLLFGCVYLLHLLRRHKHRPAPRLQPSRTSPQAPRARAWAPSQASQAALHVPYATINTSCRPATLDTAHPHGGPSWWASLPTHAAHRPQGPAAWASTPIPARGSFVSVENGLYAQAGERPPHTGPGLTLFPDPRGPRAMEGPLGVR
# Test: flow cytometry, Jurkat parental
row,MFI at 33.3nM,Substance
1,100 MFI,non-stack variant PD-L1 IgV-Fc control (D43G/N45D/L56Q/V58A/G101G-ins (G101GG)) (Fc fusion)

# Biological target: T2, rB7H6.Fc (human) (UniProt Q68D85)
# T2 sequence (looked up): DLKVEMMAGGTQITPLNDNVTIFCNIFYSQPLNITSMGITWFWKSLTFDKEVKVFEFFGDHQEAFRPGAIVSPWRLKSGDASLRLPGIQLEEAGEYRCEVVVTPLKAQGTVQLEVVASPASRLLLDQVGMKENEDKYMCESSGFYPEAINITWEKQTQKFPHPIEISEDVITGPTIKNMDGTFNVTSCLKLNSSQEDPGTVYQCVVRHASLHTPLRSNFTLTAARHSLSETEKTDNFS
# Test: flow cytometry of yeast display strain stained with 16.6 nM rB7H6.Fc
row,MFI,Substance
1,90 MFI,parental NKp30 strain (yeast-displayed wild-type NKp30 IgC-like domain) (from UniProt O14931 19-134) (receptor)
